Source: patent US20230303695A1 (SHANGHAI XBH BIOTECHNOLOGY, published 2023)

T1: recombinant human IGSF8 extracellular domain tagged by a human Fc region (IGSF8-hFc) (human, UniProt Q969P0 28-579, biotin label in Examples 17, 18 and 28 (site not given))
T1 construct: also called IGSF8-Fc fusion protein; IGSF8-hFc-biotin; not shown: human Fc region
T1 sequence: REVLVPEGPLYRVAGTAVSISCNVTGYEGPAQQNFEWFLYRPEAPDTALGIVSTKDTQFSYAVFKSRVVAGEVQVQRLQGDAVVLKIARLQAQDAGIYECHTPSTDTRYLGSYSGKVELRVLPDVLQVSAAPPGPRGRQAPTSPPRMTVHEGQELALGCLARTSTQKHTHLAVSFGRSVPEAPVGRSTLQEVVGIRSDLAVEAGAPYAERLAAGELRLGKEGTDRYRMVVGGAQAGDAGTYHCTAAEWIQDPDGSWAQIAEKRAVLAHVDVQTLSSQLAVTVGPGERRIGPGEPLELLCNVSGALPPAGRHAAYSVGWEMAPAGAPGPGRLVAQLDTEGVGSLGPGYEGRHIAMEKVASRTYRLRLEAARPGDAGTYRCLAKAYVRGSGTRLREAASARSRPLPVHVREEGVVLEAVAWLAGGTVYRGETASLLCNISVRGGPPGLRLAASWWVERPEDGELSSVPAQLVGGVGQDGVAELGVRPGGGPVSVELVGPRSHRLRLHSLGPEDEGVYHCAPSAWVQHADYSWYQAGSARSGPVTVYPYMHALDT

T2: human IGSF8 expressed on the cell surface (human, UniProt Q969P0 28-613)
T2 construct: whole, on cells; also called human IGSF8 on CT26 cells; IGSF8 on MC38 cells
T2 sequence (looked up): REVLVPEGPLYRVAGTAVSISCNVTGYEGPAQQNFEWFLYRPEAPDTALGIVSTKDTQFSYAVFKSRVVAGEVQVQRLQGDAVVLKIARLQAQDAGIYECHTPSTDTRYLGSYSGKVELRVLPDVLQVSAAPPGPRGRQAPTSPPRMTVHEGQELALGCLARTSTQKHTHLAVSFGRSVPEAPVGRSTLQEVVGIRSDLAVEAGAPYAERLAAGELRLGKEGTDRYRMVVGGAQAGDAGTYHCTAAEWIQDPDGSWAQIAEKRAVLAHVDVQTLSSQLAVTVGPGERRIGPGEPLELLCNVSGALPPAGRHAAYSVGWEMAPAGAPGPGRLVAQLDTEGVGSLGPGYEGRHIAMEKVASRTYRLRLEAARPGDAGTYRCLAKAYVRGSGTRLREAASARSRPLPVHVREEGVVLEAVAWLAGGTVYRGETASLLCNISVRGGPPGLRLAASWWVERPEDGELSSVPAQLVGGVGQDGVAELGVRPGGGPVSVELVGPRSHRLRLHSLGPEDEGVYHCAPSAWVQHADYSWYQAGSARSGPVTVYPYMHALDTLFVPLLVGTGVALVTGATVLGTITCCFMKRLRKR

B1: KIR3DL2 expressed on cells (receptor, human, UniProt P43630 22-455, looked up)
chain: LMGGQDKPFLSARPSTVVPRGGHVALQCHYRRGFNNFMLYKEDRSHVPIFHGRIFQESFIMGPVTPAHAGTYRCRGSRPHSLTGWSAPSNPLVIMVTGNHRKPSLLAHPGPLLKSGETVILQCWSDVMFEHFFLHREGISEDPSRLVGQIHDGVSKANFSIGPLMPVLAGTYRCYGSVPHSPYQLSAPSDPLDIVITGLYEKPSLSAQPGPTVQAGENVTLSCSSWSSYDIYHLSREGEAHERRLRAVPKVNRTFQADFPLGPATHGGTYRCFGSFRALPCVWSNSSDPLLVSVTGNPSSSWPSPTEPSSKSGICRHLHVLIGTSVVIFLFILLLFFLLYRWCSNKKNAAVMDQEPAGDRTVNRQDSDEQDPQEVTYAQLDHCVFIQRKISRPSQRPKTPLTDTSVYTELPNAEPRSKVVSCPRAPQSGLEGVF
notes: whole, on cells; on CT26 cells (vector with thy1.1 tag)

Legend:
[1] = biological target: B1; test: FACS, hFc-tagged proteins on CT26 cells expressing the receptor, MFI normalized to Thy1.1
Protocol: KLRC1 also contains a ITIM motif in its intracellular domain, and was known to be a inhibitory receptor of NK or CD8⁺ T cells as part of a heterodimer with KLRD1 on the cell surface. […] Specifically, 100,000 CT26 cells overexpressing the antigens (KIRs or KLRs) were washed with PBS buffer containing 2% FBS, and incubated with 100 μL IGSF8 recombinant proteins or antibodies (5 μg/mL) for 30 minutes on ice. Cells were then washed twice with wash buffer, and incubated with 100 μL of 1:100 anti-human Fc-PE antibody for 15 minutes on ice. Cells were washed twice with wash buffer and analyzed on a FACS analyzer (CytoFlex, Beckman). In these experiments, the mean fluorescence intensity (MFI) of IGSF8 binding to different CT26 cells were normalized by the expression of different KLRs on CT26 cells using an anti-thy1.1 mAb via flow cytometry.

[2] = biological target: T1, recombinant human IGSF8 extracellular …; test: FACS, biotin-labelled IGSF8-hFc on CT26 cells expressing the KIR, MFI normalized to Thy1.1
[3] = biological target: T2, human IGSF8 expressed on the cell …; test: FACS cell-cell conjugate assay, CFSE-labelled MC38-IGSF8 mixed 1:1 with Far Red-labelled CT26-KIR3DL2
Protocol: FIG. 23A is a diagram of two embodiments of an antibody blocking assay. In the left panel, CT26 cells expressing ligand IGSF8 are treated with soluble and biotin labelled receptor (KIR3DL1/2) and anti-IGSF8 mAbs, and subsequently, bound receptor is detected with PE-streptavidin. In the right panel, MC38 cells expressing the IGSF8 ligand are contacted with KLR- or KIR-receptor-expressing CT26 cells, and anti-IGSF8 antibodies capable of blocking MC38-CT26 cell/cell conjugates will reduce the formation of the FACS-detectable conjugate.
A competition assay (FIG. 23A) was then designed to test whether these seven mAbs block IGSF8 binding to the KIR3DL1/2 or the KLRC1&D1 heterodimer receptors. MC38 cells (a cell line derived from C57BL6 murine colon adenocarcinoma cells from NIH) with forced expression of IGSF8 protein on cell surface by lentiviral delivery of a human IGSF8-expression construct were labeled with CFSE (Carboxyfluorescein succinimidyl ester, Thermo). CT26 cells with forced expression of either KIR3DL1/2 or KLRC1&D1 were labeled with CellTrace Far Red (Thermo). The MC38 cells were then mixed at a 1:1 ratio with the CT26 cells for about an hour at room temperature. The formation of MC38 and CT26 cell/cell conjugates was assessed by flow cytometry.

| binding result [1] | binding result [2] | binding result [3] | Binder |
| --- | --- | --- | --- |
| no binding | – | – | IGSF8 protein without D1 domain (ligand, human, UniProt Q969P0 150-579, looked up, domain: D2-4; also called D24; D2-4) PDVLQVSAAPPGPRGRQAPTSPPRMTVHEGQELALGCLARTSTQKHTHLAVSFGRSVPEAPVGRSTLQEVVGIRSDLAVEAGAPYAERLAAGELRLGKEGTDRYRMVVGGAQAGDAGTYHCTAAEWIQDPDGSWAQIAEKRAVLAHVDVQTLSSQLAVTVGPGERRIGPGEPLELLCNVSGALPPAGRHAAYSVGWEMAPAGAPGPGRLVAQLDTEGVGSLGPGYEGRHIAMEKVASRTYRLRLEAARPGDAGTYRCLAKAYVRGSGTRLREAASARSRPLPVHVREEGVVLEAVAWLAGGTVYRGETASLLCNISVRGGPPGLRLAASWWVERPEDGELSSVPAQLVGGVGQDGVAELGVRPGGGPVSVELVGPRSHRLRLHSLGPEDEGVYHCAPSAWVQHADYSWYQAGSARSGPVTVYPYMHALDT |
| – | binds | binds | B1 |
